The subject of this series is Escherichia coli TOP10. Put plainly: shrunken log2 fold change of peptide-encoding DNA abundance (4.5 h post-induction vs induction); higher = less antimicrobial activity (less host growth inhibition). The note with it: time post-induction: 4.5 h; library: site-saturation at positions 5, 18, 19, 20.
Consider RRIRGRPPRLPRPRPRPTWMPRP, for which the “shrunken log2 fold change” value is 0.599.
With RRIRNRPPRLPRPRPRPRINPRP the figure was -0.14; with RRIRERPPRLPRPRPRPSIWPRP, -0.0411.
As for RRIRNRPPRLPRPRPRPIADPRP, the figure is 0.0461.
As for RRIRDRPPRLPRPRPRPPMGPRP, the figure is 0.283; as for RRIRCRPPRLPRPRPRPMTCPRP, -0.205; as for RRIRLRPPRLPRPRPRPGLGPRP, 0.342.
With RRIRGRPPRLPRPRPRPFSIPRP, the “shrunken log2 fold change” value is -0.0155.
For RRIRSRPPRLPRPRPRPNMTPRP, the “shrunken log2 fold change” value was -0.247.
Regarding RRIRWRPPRLPRPRPRPATFPRP, the “shrunken log2 fold change” value is 0.311.
With RRIRCRPPRLPRPRPRPCVCPRP the figure was -0.128; with RRIRLRPPRLPRPRPRPCVKPRP, 0.00159.
Take RRIRMRPPRLPRPRPRPQKPPRP: the “shrunken log2 fold change” value is -0.165.
As for RRIRARPPRLPRPRPRPWKMPRP, the figure is -0.235; as for RRIRCRPPRLPRPRPRPRVLPRP, 3.12.
With RRIRHRPPRLPRPRPRPSAMPRP the figure was 0.06.
Regarding RRIRHRPPRLPRPRPRPCVFPRP, the “shrunken log2 fold change” value is -0.0413.
With RRIRTRPPRLPRPRPRPQDWPRP the figure was 0.209.
RRIRPRPPRLPRPRPRPIFRPRP: the “shrunken log2 fold change” value is -0.0135.
Consider RRIRCRPPRLPRPRPRPIERPRP, for which the “shrunken log2 fold change” value was 0.0355.
As for RRIRLRPPRLPRPRPRPFSNPRP, the “shrunken log2 fold change” value was -1.04.
For RRIRHRPPRLPRPRPRPLIYPRP, the “shrunken log2 fold change” value is -0.569.
With RRIRHRPPRLPRPRPRPSRCPRP the figure was -0.648; with RRIRRRPPRLPRPRPRPGVSPRP, 0.249; with RRIRIRPPRLPRPRPRPLFDPRP, -0.803.
For the sequence RRIRTRPPRLPRPRPRPAYCPRP, the “shrunken log2 fold change” value was -0.0119.
With RRIRSRPPRLPRPRPRPLHMPRP the figure was 0.0919; with RRIRSRPPRLPRPRPRPTNGPRP, 0.0899; with RRIRDRPPRLPRPRPRPSSPPRP, -0.341.
Take RRIRNRPPRLPRPRPRPGTWPRP: the “shrunken log2 fold change” value was found to be 0.218.
With RRIRHRPPRLPRPRPRPTGVPRP the figure was 0.18; with RRIRFRPPRLPRPRPRPMSQPRP, 0.0397.
For RRIRHRPPRLPRPRPRPISCPRP, the “shrunken log2 fold change” value is -0.0318.
As for RRIRSRPPRLPRPRPRPGTKPRP, the figure is 0.108; as for RRIRMRPPRLPRPRPRPVRCPRP, 0.117; as for RRIRPRPPRLPRPRPRPAHWPRP, 0.484.
As for RRIRDRPPRLPRPRPRPTYTPRP, the figure is 0.319.
As for RRIRMRPPRLPRPRPRPSICPRP, the “shrunken log2 fold change” value is -0.176.
With RRIRARPPRLPRPRPRPMIGPRP the figure was 0.102.
With RRIRDRPPRLPRPRPRPAVSPRP the figure was -0.000946.
As for RRIRPRPPRLPRPRPRPCPSPRP, the figure is 0.0668.
In the case of RRIRDRPPRLPRPRPRPMRFPRP, the “shrunken log2 fold change” value came to 0.21.
On to RRIRERPPRLPRPRPRPFKQPRP, for which the “shrunken log2 fold change” value is -0.0138.
With RRIRWRPPRLPRPRPRPSAWPRP the figure was 0.319.
Consider RRIRCRPPRLPRPRPRPKYMPRP, for which the “shrunken log2 fold change” value was -0.498.
As for RRIRYRPPRLPRPRPRPIATPRP, the figure is 0.0782.
With RRIRQRPPRLPRPRPRPKAYPRP the figure was 0.0697; with RRIRCRPPRLPRPRPRPSMGPRP, -0.169; with RRIRSRPPRLPRPRPRPYCDPRP, -0.225.
With RRIRERPPRLPRPRPRPCWQPRP the figure was -0.0429; with RRIRTRPPRLPRPRPRPSMIPRP, -0.527.
Turning to RRIRNRPPRLPRPRPRPHPRPRP, the “shrunken log2 fold change” value was 0.0824.
With RRIRYRPPRLPRPRPRPPKYPRP the figure was -0.97.
With RRIRWRPPRLPRPRPRPHCTPRP the figure was -0.401; with RRIRDRPPRLPRPRPRPYKYPRP, -0.661; with RRIRSRPPRLPRPRPRPPCMPRP, 0.464.
As for RRIRRRPPRLPRPRPRPRPTPRP, the figure is 0.821.
Consider RRIRSRPPRLPRPRPRPHWWPRP, for which the “shrunken log2 fold change” value came out at 0.359.
As for RRIRGRPPRLPRPRPRPTEGPRP, the figure is 0.795; as for RRIRTRPPRLPRPRPRPTRNPRP, -0.0423; as for RRIRGRPPRLPRPRPRPCILPRP, 0.0804.
As to RRIRSRPPRLPRPRPRPWEKPRP, the “shrunken log2 fold change” value was -0.01.
For the sequence RRIRKRPPRLPRPRPRPNHQPRP, the “shrunken log2 fold change” value is -0.376.
Turning to RRIRWRPPRLPRPRPRPCPSPRP, the “shrunken log2 fold change” value turned out to be 0.0767.
As to RRIRFRPPRLPRPRPRPYRNPRP, the “shrunken log2 fold change” value was -0.00237.
With RRIRNRPPRLPRPRPRPKCKPRP the figure was -0.261; with RRIRDRPPRLPRPRPRPYFAPRP, -0.413.
With RRIRQRPPRLPRPRPRPIMRPRP the figure was 0.0932; with RRIRKRPPRLPRPRPRPKRVPRP, 0.717.
RRIRIRPPRLPRPRPRPRNKPRP: the “shrunken log2 fold change” value is -0.0432.
For RRIRQRPPRLPRPRPRPEFLPRP, the “shrunken log2 fold change” value is 0.025.
As to RRIRMRPPRLPRPRPRPMKDPRP, the “shrunken log2 fold change” value amounted to 0.251.
As for RRIRTRPPRLPRPRPRPVMQPRP, the figure is -0.0482; as for RRIRMRPPRLPRPRPRPVMEPRP, -0.00102.
Consider RRIRRRPPRLPRPRPRPEIPPRP, for which the “shrunken log2 fold change” value is 0.163.
With RRIRGRPPRLPRPRPRPTYSPRP the figure was -0.0883.
As for RRIRFRPPRLPRPRPRPPSRPRP, the figure is 0.551; as for RRIRRRPPRLPRPRPRPISGPRP, 0.0239; as for RRIRMRPPRLPRPRPRPSFPPRP, -0.222.
As to RRIRERPPRLPRPRPRPMWTPRP, the “shrunken log2 fold change” value was -0.306.
As for RRIRARPPRLPRPRPRPKQFPRP, the figure is 0.3.
With RRIRERPPRLPRPRPRPHEQPRP the figure was -0.0112.
As for RRIRCRPPRLPRPRPRPPNTPRP, the figure is -0.0497; as for RRIRNRPPRLPRPRPRPYWCPRP, -0.00264.
RRIRIRPPRLPRPRPRPDGQPRP: the “shrunken log2 fold change” value is -0.0297.
As for RRIRDRPPRLPRPRPRPCAVPRP, the figure is 0.189.
With RRIRPRPPRLPRPRPRPAQCPRP the figure was 0.148; with RRIRHRPPRLPRPRPRPGIMPRP, -0.566.
Regarding RRIRTRPPRLPRPRPRPEGPPRP, the “shrunken log2 fold change” value stood at 0.285.
With RRIRNRPPRLPRPRPRPLDNPRP the figure was -0.263; with RRIRRRPPRLPRPRPRPLRWPRP, 0.732.
As for RRIRDRPPRLPRPRPRPRDYPRP, the figure is 0.0389; as for RRIRQRPPRLPRPRPRPNQDPRP, -0.0715; as for RRIRQRPPRLPRPRPRPGLHPRP, -0.111.
On to RRIRFRPPRLPRPRPRPVKAPRP, for which the “shrunken log2 fold change” value is 0.0979.
As to RRIRVRPPRLPRPRPRPKHWPRP, the “shrunken log2 fold change” value turned out to be 0.151.
As for RRIRQRPPRLPRPRPRPCRYPRP, the figure is -0.167.
As for RRIRLRPPRLPRPRPRPLPEPRP, the figure is 0.39; as for RRIRTRPPRLPRPRPRPMWAPRP, 0.0473; as for RRIRHRPPRLPRPRPRPVWQPRP, 0.0177.
With RRIRYRPPRLPRPRPRPYYKPRP the figure was -0.534.
As to RRIRIRPPRLPRPRPRPMTHPRP, the “shrunken log2 fold change” value is -0.996.
As for RRIRARPPRLPRPRPRPHYTPRP, the figure is 0.203; as for RRIRMRPPRLPRPRPRPKSWPRP, 1.11; as for RRIRFRPPRLPRPRPRPIEGPRP, 0.0922.
With RRIRRRPPRLPRPRPRPCSMPRP the figure was 0.464; with RRIRWRPPRLPRPRPRPNGHPRP, -0.0518; with RRIRCRPPRLPRPRPRPQEMPRP, -0.627.
In the case of RRIRGRPPRLPRPRPRPDAPPRP, the “shrunken log2 fold change” value amounted to 1.9.
As for RRIRSRPPRLPRPRPRPQQMPRP, the figure is -0.155; as for RRIRGRPPRLPRPRPRPWTVPRP, -0.0833; as for RRIRERPPRLPRPRPRPWMTPRP, -0.108.
As for RRIRRRPPRLPRPRPRPRQCPRP, the figure is 0.596; as for RRIRPRPPRLPRPRPRPGLKPRP, 0.211.
With RRIRIRPPRLPRPRPRPNFCPRP the figure was -0.162.
For RRIRNRPPRLPRPRPRPHELPRP, the “shrunken log2 fold change” value is -0.0632.
With RRIRQRPPRLPRPRPRPLCQPRP the figure was -0.304; with RRIRQRPPRLPRPRPRPQMRPRP, -0.0736; with RRIRSRPPRLPRPRPRPGRDPRP, 0.255.
With RRIRERPPRLPRPRPRPCMIPRP the figure was -0.2; with RRIRHRPPRLPRPRPRPFVLPRP, -0.0634.
As for RRIRLRPPRLPRPRPRPTRVPRP, the figure is 0.389; as for RRIRMRPPRLPRPRPRPYAFPRP, -0.0624; as for RRIRWRPPRLPRPRPRPYDKPRP, -0.534.
On to RRIRPRPPRLPRPRPRPHFEPRP, for which the “shrunken log2 fold change” value turned out to be 0.0605.

(Values after the supplement of paper PMC9112550, “Optimization of the antimicrobial peptide Bac7 by deep mutational scanning” (BMC Biology, 2022).)
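Further: peptides expressed intracellularly from a pBAD plasmid library in pooled LB shake-flask culture, induced with 0.3% L-arabinose, DNA abundance read by NGS, three biological replicates, DESeq2 with apeglm shrinkage.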
